Biological target: antigen CD3 (Biacore analysis) (Homo sapiens (Human)) (UniProt P07766)
Test: SPR (Biacore)

- Kd: 64.6 nM
- koff: 0.109 s⁻¹
- kon: 1.68e+06 M⁻¹ s⁻¹
B1: huOKT3 IgG1-aGlyco (antibody, V domains shown)
VH: QVQLVQSGGGVVQPGRSLRLSCKASGYTFTRYTMHWVRQAPGKGLEWIGYINPSRGYTNYNQKFKDRFTISRDNSKNTAFLQMDSLRPEDTGVYFCARYYDDHYCLDYWGQGTPVTVSS
VL: DIQMTQSPSSLSASVGDRVTITCSASSSVSYMNWYQQTPGKAPKRWIYDTSKLASGVPSRFSGSGSGTDYTFTISSLQPEDIATYYCQQWSSNPFTFGQGTKLQITR
